Data on two molecules can be found in publication PMC5575297, “Interaction of lipopolysaccharides at intermolecular sites of the periplasmic Lpt transport assembly” (Scientific Reports, 2017).

To fix the notation:
T1: LptC construct lacking the 23 residues long N-terminal transmembrane domain (E. coli), P0ADV9
T1 chain: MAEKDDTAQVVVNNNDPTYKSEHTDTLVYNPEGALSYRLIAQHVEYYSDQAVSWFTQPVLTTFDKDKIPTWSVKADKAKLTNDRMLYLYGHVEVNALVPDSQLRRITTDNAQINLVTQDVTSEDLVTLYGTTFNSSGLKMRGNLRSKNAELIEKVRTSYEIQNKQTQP

B1: LptAm (monomeric E. coli LptA mutant, LptA Δ160-185) (domain or fragment, UniProt P0ADV1 28-159, looked up)
chain: VTGDTDQPIHIESDQQSLDMQGNVVTFTGNVIVTQGTIKINADKVVVTRPGGEQGKEVIDGYGKPATFYQMQDNGKPVEGHASQMHYELAKDFVVLTGNAYLQQVDSNIKGDKITYLVKEQKMQAFSDKGKR
notes: LptA, E. coli, residues 28-159; lacks the last C-terminal β-strand (Δ160-185); For NMR the protein was isotope-labelled (2H, 13C, 15N) or unlabelled; the purified protein is 28-159; also called monomeric LptA; C-terminally truncated LptA; source: E. coli BL21(DE3), pET21b, purified (HiTrap, S75 SEC)
B2: LptC construct lacking the 23 residues long N-terminal transmembrane domain (domain or fragment, E. coli, UniProt P0ADV9 24-191, looked up)
chain: T1 chain
notes: LptC, E. coli, lacking the first 23 residues (transmembrane domain); For NMR the protein was isotope-labelled (2H, 13C, 15N, or AILV methyl-labelled) or unlabelled; also called LptC dimer; source: E. coli M15 [prep4], pQESH plasmid, purified (HiTrap, S75 SEC)

The target in assay [1] is B2. As to the kind of experiment: SAXS; beamline BM29 (ESRF), 20 °C, NMR buffer with 0.5% w/v sucrose; LptAm 1.6 and 2.4 mg/ml, LptC 1, 2 and 3 mg/ml, LptAm:LptC 1:1 molar ratio at 3.6 and 5.4 mg/ml; extrapolated to zero dilution. The conditions noted are these: both partners purified.
The target in assay [2] is T1, LptC construct lacking the 23 residues …. The assay can be described thus: SEC-MALS; 40 µl injected on Superdex S200 (10/300GL) in buffer B (50 mM sodium phosphate, 150 mM NaCl, pH 8) at 25 °C; proteins alone and LptC-LptAm mixtures (also with a two-times molar excess of LptAm); protein conjugate two-component analysis for the complex. As to conditions: remark: other sources report otherwise.

In assay [3] the target is B1. The assay can be described thus: NMR titration; isotope-labelled LptC or LptAm with the unlabelled partner (1.2 molar equivalents); 2D BEST-TROSY / methyl spectra; 35 °C, buffer B with 5% D2O; submillimolar concentrations. The conditions noted are these: both partners purified.
Assay [4] concerns the target B1. The assay can be described thus: SEC-MALS; 40 µl injected on Superdex S200 (10/300GL) in buffer B (50 mM sodium phosphate, 150 mM NaCl, pH 8) at 25 °C; proteins alone and LptC-LptAm mixtures (also with a two-times molar excess of LptAm); protein conjugate two-component analysis for the complex. As to conditions: both partners purified. On the technique in general: Size exclusion chromatography separates by hydrodynamic size, large species first.

Assay [5] has as its target T1, LptC construct lacking the 23 residues …. As to the kind of experiment: SAXS; beamline BM29 (ESRF), 20 °C, NMR buffer with 0.5% w/v sucrose; LptAm 1.6 and 2.4 mg/ml, LptC 1, 2 and 3 mg/ml, LptAm:LptC 1:1 molar ratio at 3.6 and 5.4 mg/ml; extrapolated to zero dilution. The conditions noted are these: remark: other sources report otherwise.

With B1, the binding result in assay [1] was “binds”.

In general, stoichiometry N refers to the number of molecules, sites or subunits per partner or assembly. For the molecule B2, the stoichiometry N in assay [2] was 2; in assay [3], ~1 LptC:LptAm molar ratio; in assay [4], 2 LptC:LptAm (2:1); in assay [5] it was 2.
